Source: the DeepSol protein solubility set

assay: soluble on expression in E. coli; label from the status in PepcDB or PDB records

| Sequence | soluble on expression in E. coli |
| --- | --- |
| MLFKTIFYQKLQKKVTTLFNLETERVIREIENLNKNNPKVIFQAPEGLKLKVEKEIEKIKQYFKQKNINIEIYLWGNTCFGACDLIDNHVKNLNVDLIIHYGHEKLSYANPEIKTLFIPAYHIFNKDEEEKILNDIKNFIEKHKSGGKKVAIATTIQYKKLLKDFNPSIILGCRGEVKEGDVILFVGTGRFHPLMIAYKYQKEVFIYNPLSKCFDKISEEEINKFIKKRILAISKLLLNKPKKVGVVLSTKKGQCRKRVFDEIIKLLEENDVNYLPILVDNISPDILFYDVDCYIIVACPRIVLDDYILYKKPIYTPEEFKLFLKNSFKYKFDEIKEDDFLEHHHHHH | soluble |
| MLFPTTIAGSLPKPEWLAEPNKLWAPWKSTGAELLRAKRDATILALKLQEDSGIDIVTEGEQARQHFVHGFLEAVEGIDFAHKVEMGIRNDRYKAMVPQVVAPLRLKGRVHGFEGQIARAHSTHKIKFTLPGPMTIIDTIADRHYGDRVKMAFAFAELLNEEAKALQADGIDMIQFDEPAFNVYMSEAADWGVKALERAAQDLTCATAVHICYGYGIKANTDWKETLGAEWRQYEDIFPAIDASSIQQVAVECRNSKVPLELLSLLKGKIVQAGVIDVASDEVETAEDVCATIEAVMQHVPKSNIIATTNCGMAPMRREIAEAKLAALGAGAELARERFKLEHHHHHH | soluble |
| MLFQNVSIAGLAHVDAPHTLTSKEINGRLQPTYDRLGIKTDVLGDVAGIHARRLWDQDVQASDAATQAARKALIDAGIGIEKIGLLVNTSVSRDYLEPSTASIVSGNLGVGDHCVTFDVANACLAFINGMDIAARMLERGEIDYALVVDGETANLVYEKTLERMTSPDVTEEEFRNELAALTLGCGAAAMVMARTELVPDAPRYKGGVTRSATEWNKLCRGNLDRMVTDTRLLLIEGIKLAQKTFLAARQVLGWAVDELDQFVIHQVSRPHTAAFVKSFGIDPAKVMTIFGEHGNIGPASVPIVLSKLKELGRLKKGDRIALLGIGSGLNCSMAEVVW | soluble |
| MLGMTHFSQQDNFSVAARVLGALFYYAPESAEAAPLVAVLTSDGWETQWPLPEASLAPLVTAFQTQCEETHAQAWQRLFVGPWALPSPPWGSVWLDRESVLFGDSTLALRQWMREKGIQFEMKQNEPEDHFGSLLLMAAWLAENGRQTECEELLAWHLFPWSTRFLDVFIEKAEHPFYRALGELARLTLAQWQSQLLIPVAVKPLFR | not soluble |
| MLGMYVPDRFALKSSRVQDGMGLYTARRVRKGEKFGPFAGEKRMPEDLDENMDYRLMWEVRGSKGEVLYILDATNPRHSNWLRFVHEAPSQERKNLAAIQEGENIFYLAVDDIETDTELLIGYLDSDVEAEEEEQQALTMTKEGKVDHSKGQLAAGSKGHLGCEEDFACPQCESSFPSEEVLTEHLQSLHQKPTGEKEFKCENCGKKFPVRQALQRHFEQHRKACRGEARFVCKADSCGKRLKSKDALRRHQENVHTGDPKRKLICSVCNRKCTSVSSLQEHRKIHEIFDCQECMKKFISANQLKRHMITHSEKRPYNCEICNKSFKRLDQVGAHKVIHSEDKPYQCKLCGKGFAHRNVYKNHKKTHSEERPFQCDACKALFRTPFSLQRHLLIHNSERTFKCHHCDATFKRKDTLNVHVQVVHERHKKYRCELCNKAFVTPSVLRSHKKTHTGEKEKVCPYCGQKFASSGTLRVHIRSHTGERPYQCPYCEKGFSKNDGLKMHIRTHTREKPYQCSECSKAFSQKRGLDATKRTHTGEKPFQCDVCDLAFSLKKMLIRHKMTHNPNRPMAECHFCHKKFTRNDYLKVHMDNIHGVADS | soluble |
| MLGVCYYPEHWPKERWKEDARRMREAGLSHVRIGEFAWALLEPEPGRLEWGWLDEAIATLAAEGLKVVLGTPTATPPKWLVDRYPEILPVDREGRRRRFGGRRHYCFSSPVYREEARRIVTLLAERYGGLEAVAGFQTDNEYGCHDTVRCYCPRCQEAFRGWLEARYGTIEALNEAWGTAFWSQRYRSFAEVELPHLTVAEPNPSHLLDYYRFASDQVRAFNRLQVEILRAHAPGKFVTHNFMGFFTDLDAFALAQDLDFASWDSYPLGFTDLMPLPPEEKLRYARTGHPDVAAFHHDLYRGVGRGRFWVMEQQPGPVNWAPHNPSPAPGMVRLWTWEALAHGAEVVSYFRWRQAPFAQEQMHAGLHRPDSAPDQGFFEAKRVAEELAALALPPVAQAPVALVFDYEAAWIYEVQPQGAEWSYLGLVYLFYSALRRLGLDVDVVPPGASLRGYAFAVVPSLPIVREEALEAFREAEGPVLFGPRSGSKTETFQIPKELPPGPLQALLPLKVVRVESLPPGLLEVAEGALGRFPLGLWREWVEAPLKPLLTFQDGKGALYREGRYLYLAAWPSPELAGRLLSALAAEAGLKVLSLPEGLRLRRRGTWVFAFNYGPEAVEAPASEGARFLLGSRRVGPYDLAVWEEA | soluble |
| MLICNSSFPYLQVDYKIGVKGLLAKSKEDIDKCCKGEYFMQLKYVDTKEEIIAINRKSKHIEPHLHNALEIVCVTSGSLELGVGQELYHMEKGDIGFVFPDVIHHYQVLTPGVNKATYLIASPFSIDKFADIMQSMAPEYPIIKAEKVEPEVYRVINAILETEQSDITVAQAYLQIVLARCIGKLNLVEKSSVGSNDLIYQTVSYISANFKKKFSLEEMAKDLGVGKYVLSRLFSKTFHRNFNQYLNDARLNYACHRLENTSDSITNICLDSGFESQRTFNRVFKEKYKISPSDYRSTCVKEMLS | not soluble |
| MLIDMILAFSVAPTETPNNKAEMADVVAEAIRVVRESGLPNETNAMFTLIEGEWDEVMAVVKKATDAVLAVSPRASLVIKADIRPGYTGQLQQKVASVERVLAGDSES | not soluble |
| MLIGMSNQTVNQAVSSGVKASPHRFNRFEIKYLITEQDVPALREQLATRMSTDPLSPPGGYRVESLYFDSADLRCYTEKIEGLKFRRKLRIRTYGDGVLTPESTVSVEIKQRVNKVTQKRRLDLPFIYALALGDSTGAAVGEQVDVEKLLEISPENQHALIHEMASFAKNYRLRPIATTKYHREAFVGADAEESSRVTIDHGVSGRDRDFLLGQDLEDRPTVAQGLAVVEIKCDERVPFWLTDMTAQLEMSVIRMSKYCETIEAFHNRPASAFGAVDPIFLEHHHHHH | soluble |
| MLIQKAYKYRLYPTDQQAQRLRQLCGCARFVWNYALNETLSIHDAGGKIPSAFDLNKRLTGWKKLPELAFLSEGYTDNLQQKLKDLRSAWDRCFDKSLTAEKPVFKKKTKGCDSIRFVNFSKYCGLDYGRVKLPSGLGWVKFRQSRKIEGVIKNCTISQHAGHWYVSFQVELAVTDPIHASTSAIGLDAGITKLATLSDGTVFEPVNSLKKNQDKLARLQRRLARMVKFSANWKKQKAKISRFHSHIANIRRDYLHKTTTTISKNHAMIVIEDLKVSNMSKSAAGTVDQPGRNVAAKSGLNRAILDQGWAEMRRQLEYKQAWRGGDVLAINPAYTSQKCACCGHTSKNNRRTQASFICTACGYTANADVNGARNILTAGFEVMAAGQILPSVRKGRARKAA | not soluble |
| MLIRTEAPADILTVDRLVRSAFDTEAEAKLVMSLRENSHLTLALVACSDDGEVIGHCLFSPVTLNGDDLNWQGLAPLCVKKEHQKQGIAEALVKEGLEMLTELGYPVVVVLGDSNYYQRFGFESATNYDMHSKWEVPEGAFMIKACSSEFLEGRSGLIEYCPEFDVL | not soluble |
| MLITKNQAEKWFDNSLGKQFNPDLFYGFQCYDYANMFFMLATGERLQGLYAYNIPFDNKAKIEKYGQIIKNYDSFLPQKLDIVVFPSKYGGGAGHVEIVESANLNTFTSFGQNWNGKGWTNGVAQPGWGPETVTRHVHYYDNPMYFIRLNFPNNLSVGNKAKGIIKQATTKKEAVIKPKKIMLVAGHGYNDPGAVGNGTNERDFIRKYITPNIAKYLRHAGHEVALYGGSSQSQDMYQDTAYGVNVGNKKDYGLYWVKSQGYDIVLEIHLDAAGESASGGHVIISSQFNADTIDKSIQDVIKNNLGQIRGVTPRNDLLNVNVSAEININYRLSELGFITNKNDMDWIKKNYDLYSKLIAGAIHGKPIGGVVASEVKAPVKNEKNPPVPAGYTLDKNNVPYKKEQGNYTVANVKGNNVRDGYSTNSRITGVLPNNTTITYDGAYCINGYRWITYIANSGQRRYIATGEVDIAGNRISSFGKFSAV | soluble |
| MLKFKNRIVEKRVKGAEKASFGGPVLLYRTLRKVTKLYKYITDKKSFPILVTSLFALFNPNSVLAADKYSNFEELKENESPLSYNILTTDVDRRVLILAPHGGGIEGGTSELARELSKSYSAYLFEGLRIPGASELHITSTNFDEPQALDLLSKHDLTISIHGYASSKKHTLVGGTDREKAAKITSLLTDAGFSAELLSEDSRLAGTNEQNIANKNSTGMSIQLEISTEQRREMFNTFTLAGRNGTQNQVFYDYIAVLTKFINENVYCMAGVAPLEHHHHHH | not soluble |
| MLKLGHCGVEKQEVQKRIGLRVIELREHKGWSQSDLARACNKDRQAIEKIESGKVNPTIFSLYEIAIALGVSLSKVTGI | not soluble |
| MLKQPIQAQQLIELLKVHYGIDIHTAQFIQGGADTNAFAYQADSESKSYFIKLKYGYHDEINLSIIRLLHDSGIKEIIFPIHTLEAKLFQQLKHFKIIAYPFIHAPNGFTQNLTGKQWKQLGKVLRQIHETSVPISIQQQLRKEIYSPKWREIVRSFYNQIEFDNSDDKLTAAFKSFFNQNSAAIHRLVDTSEKLSKKIQPDLDKYVLCHSDIHAGNVLVGNEESIYIIDWDEPMLAPKERDLMFIGGGVGNVWNKPHEIQYFYEGYGEINVDKTILSYYRHERIVEDIAVYGQDLLSRNQNNQSRLESFKYFKEMFDPNNVVEIAFATEQLEHHHHHH | soluble |
| MLKRKVITEFRRHNRSSRWNADAHLRAHERSANVEDDAIMRVDTCQLAANNPIEDFYSAAKCLSSRAFLFGVFDGHGGQQCSRHISTNLYPYLCASVLKKHEVVDYPSDQRLEWLFSSSDGHLPNAFKGRETQHIAEYHKQFKKNANAYTGTVREALKLAFETCDKDLAENALPSAKGVIDRHAAMVAASGSCCTLAHIRSRHLHVANLGDAAAVLGVVNPNGSVTARQLSRAHCVDNADEVHRIRIAHPASESQTVLRGGRLLGELFPLRAFGDVRYKWPLDLQKVVLEPLGHPPPQHLFTPPYLSTSPEVFYHKLTPNDRFLVLATDGLWEWLDPDTVVRLVHDHTLGTITQQPYVPKSGTSLRQVREQLKDRARGEQKTKKPIDENCATHIIRHALGGVSGGATKQYERLIDILQVPPGRARNYRDDITVIVIHFNETFLDGHEDDEE | not soluble |
| MLLKRRLFIAASLFAMHLSPALAADAVSFAPQPPAIDAGAWVLMDYTTGQVLTAGNEHQQRNPASLTKLMTGYVVDRAIDSHRISPDDIVTVGRDAWAKDNPVFVGSSLMFLKEGDRVSVRDLSRGLIVDSGNDACVALADYIAGGQPQFVAMMNSYVKKLNLQDTHFETVHGLDAPGQHSSAYDLAVLSRAIIHGEPEFYHMYSEKSLTWNGITQQNRNGLLWDKTMHIDGLKTGHTSGAGFNLIASAVDGQRRLIAVVMGAKSSKGREEQARKLLQWGQQNFATVQILHSGKKVGSERIWYGDKEKIALGTEQDFWMALPKAEIPHIKAKYVLDRKELEAPIAAHQQVGEIELYDRDKLIAQWPLVTLESVGKGGMFSRLSDYFQHKA | not soluble |
| MLLSKKSEYKTLSTVEHPQYIVFCDFDETYFPHTIDEQKQQDIYELEDYLEQKSKDGELIIGWVTGSSIESILDKMGRGKFRYFPHFIASDLGTEITYFSEHNFGQQDNKWNSRINEGFSKEKVEKLVKQLHENHNILLNPQTQLGKSRYKHNFYYQEQDEINDKKNLLAIEKICEEYGVSVNINRCNPLAGDPEDSYDVDFIPIGTGKNEIVTFMLEKYNLNTERAIAFGDSGNDVRMLQTVGNGYLLKNATQEAKNLHNLITDSEYSKGITNTLKKLIGFMRRKLEHHHHHH | soluble |
